Test results taken from the supplement of paper PMC10567573.

B1: GALNT9 (parent)
chain: FTQSGPIVSRATGRCLEVEMSKDA

Variants of: B1
Experiment: protein stability index of a GFP-peptide fusion (GPS, HEK-293T) (PSI 1-6); higher = more stable
Conditions: c terminus: a fixed tail appended
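Note: lentivirally expressed fusions sorted by FACS into six bins by GFP to DsRed ratio, PSI derived from sequencing read proportions per bin multiplied by bin number.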

Protein stability index, by site and new letter:
S9: E 2.2; D 2.99; H 1.67; M 2.28; C 2.17; T 1.92; F 2.88; G 2.76
S21: I 1.07; V 2.05; T 2.15; R 3.38; L 1.74; E 2.71; C 1.47; D 1.63; K 1.82; F 1.86; N 1.79; P 2.55; H 1.76; Q 1.34; G 1.21
A11: G 1.95; I 1.67; T 2.24; P 2.31; F 1.06; S 1.77; R 1.65; D 3.15; K 1.83; Y 3.67; M 1.73
D23: P 1.92; H 2.3; E 2.44; G 1.79; L 2.07; I 1.57; K 1.84; C 1.51; N 2.42
F1: D 3.51; C 3.31; I 2; M 1.74; K 3.17; L 2; W 2.3; G 3.15; E 4.08; H 2.93; Q 2.98; Y 2.03; P 1.87; N 3.15
R10: V 2.6; S 3.5; P 2.49; N 2.01; T 2.5; H 2.37; F 1.41; L 2.77; M 1.48; C 2.33; A 2.41; Y 2.44; Q 3.02; D 3.87; E 3.91; K 2.65; I 1.53; G 2.89
E17: V 1.24; Q 2.94; K 2.41; S 2.15; A 1.03; C 1.84; G 2.09; D 1.91; P 2.05; R 5.49; Y 3.5; F 3.92; N 3.09
T12: Y 2.47; L 1.64; S 1.78; Q 1.56; K 2.15; N 2.4; E 3.19; R 2.04; M 1.48; A 3.14; I 1.89; H 1.58; V 1.51; D 2.38; P 2.05
E19: M 3.89; S 1.35; N 1.62; R 3.07; D 2.02; G 2.19; H 1.62; K 2.33; F 2.37; I 1.71; V 1.45; T 1.22; P 2.57; A 2.49; L 2.39; Y 1.53
V18: L 1.79; R 1.94; Q 2.31; F 2.61; W 1.74; N 2.55; Y 1.94; A 1.61; P 2.59; E 1.01; K 3.26; I 2.32; D 2.53; M 1.92; T 2.02; H 1.81
Q3: I 1.58; N 1.24; A 2.01; T 1.94; M 3.03; F 2.34; P 1.34; R 1.48; D 1.83; L 1.84; S 2.48; W 1.51; G 1.73; H 2.04; Y 1.73; K 2.54; E 2.51
C15: S 2.7; T 2.99; N 3.75; R 3.86; Y 3.04; P 3.11; I 2.7; V 3.06; F 2.44; H 3.37; K 2.53; M 2.78; Q 3.14; L 4.19; D 3.9
